Source: doi:10.1101/2024.05.29.596243 (bioRxiv, 2024)

Molecular target: the molecule itself
Assay: cryo-electron tomography with subtomogram averaging

B1: H+-ATPase Pma1 (natural protein, UniProt Q6FXU5 1-902, looked up)
chain: MSDVESNNEKPPQDVYEDEEMSEDDDIDALIEELQSHHGMGDDDDSEDEGHHTGSARVVPEEYLQTDPSYGLTSDEVAHRRKKYGLNQMADERESMIVKFVMFFVGPIQFVMEAAAILAAGLSDWVDFGVICGLLMLNACVGFIQEFQAGSIVDELKKTLANVAVVIRDGQLVEVPANEVVPGDILQLEDGTIIPADGRLVTENCFLQVDQSAITGESLAVDKGYGDQTFSSSTVKRGEAFMVVTATGDNTFVGRAAALVNKASGGQGHFTEVLNGIGILLLVLVIVTLLGVWAACFYRTDNIVKILRFTLGITIIGVPVGLPAVVTTTMAVGAAYLAKKQAIVQKLSAIESLAGVEILCSDKTGTLTKNKLSLHEPYTVEGVSADDLMLTACLAASRKKKGLDAIDKAFLKSLINYPKAKDALTKYKVIEFHPFDPVSKKVTAVVESPEGERIVCVKGAPLFVLKTVEEDHPIPEDVHENYENKVAELASRGFRALGVARKRGEGHWEILGVMPCMDPPRDDTAETVNEARRLGLRVKMLTGDAVGIAKETCRQLGLGTNIYNAERLGLGGGGDMPGSELADFVENADGFAEVFPQHKYKVVEILQNRGYLVAMTGDGVNDAPSLKKADTGIAVEGASDAARSAADIVFLAPGLSAIIDALKTSRQIFHRMYSYVVYRIALSLHLELFLGLWIIILNHSLDIELIVFIAIFADVATLAIAYDNAPFSQTPVKWNLPRLWGMSIILGIVLAIGTWICLTTMFLPRGGIIQNFGSIDGVLFLQISLTENWLIFVTRAVGPFWSSIPSWQLAGAVFAVDIIATMFTLFGWFSQNWTDIVTVVKIYIWSIGVFCVLGGFYYIMSESVVFDRLMNGKPLKEEKSTRSVEDFLAAMQRVSTQHEKEN
  stoichiometry N: 6
